Assay results from a protein production outcome set (Wang et al. 2014).

Assay: label from the status in PepcDB records

| Sequence | protein production |
| --- | --- |
| VEGFKVMRDGIKVASDETLLTPRFYTTDFDEMERLFSLELNKNMDMEEFEAMLNEFKLDYNQRHFVRNETFKEAAEKIQGPTRKIFIEFLERSCTAEFSGFLLYKELGRRLKATNPVVAEIFTLMSRDEARHAGFLNKAMSDFNLALDLGFLTKNRKYTFFKPKFIFYATYLSEKIGYWRYISIYRHLQRNPDNQLYPLFEYFENWCQDENRHGDFFTAVLKARPEMVNDWAAKLWSRFFCLSVYITMYLNDHQRDAFYSSLGLNTTQFNQHVIIETNKSTERIFPAVPDVENPEFFRRMDLLVKYNAQLVNIGSMNLPSPIKAIMKAPILERMVAEVFQVFIMTPKESGSYDLDANKTALVY | not failed |
| MNNSINHKFHHISRAEYQELLAVSRGDAVADYIIDNVSILDLINGGEISGPIVIKGRYIAGVGAEYADAPALQRIDARGATAVPGFIDAHLHIESSMMTPVTFETATLPRGLTTVICDPHEIVNVMGEAGFAWFARCAEQARQNQYLQVSSCVPALEGCDVNGASFTLEQMLAWRDHPQVTGLAEMMDYPGVISGQNALLDKLDAFRHLTLDGHCPGLGGKELNAYITAGIENCHESYQLEEGRRKLQLGMSLMIREGSAARNLNALAPLINEFNSPQCMLCTDDRNPWEIAHEGHIDALIRRLIEQHNVPLHVAYRVASWSTARHFGLNHLDLLAPGKQADIVLLSDARKVTVQQVLVKGEPIDAQTLQAEESARLAQSAPPYGNTIARQPVSASDFALQFTPGKRYRVIDVIHNELITHSHSSVYSENGFDRDDVCFIAVLERYGQRLAPACGLLGGFGLNEGALAATVSHDSHNIVVIGRSAEEMALAVYQVIQDGGGLCVVRNGQVQSHLPLPIAGLMSTDTAQSLAEQIDALKAAARECGPLPDEPFIQMAFLSLPVIPALKLTSQGLFDGEKFVFTTLEVTE | failed |
| MLLSHAFGLFTHPEDEWVSIKKEHEHPTRLYVAYVVVLAAIAPICAYISTAHFGWSIGSERLIKLTEISALQMSVLTYLAMLVGVFALGYAINWMAKTYGAKEEHVPSNGIALAAYSCTPLFLAGFALLYPVPWFNAVVFLAAACYGAWLMYDGLPIVMGIEKERAVMYGGALLTVALVILVSTRVGSVILWNLGLGPVFVSG | failed |
| MQRFVCEQNIAHFQKLLETAEDEKLRRTLLGLLSSAKRELALLHSRLSGADLSPLAYRNRGGDLNSVLAQIRAGFDASDHPYMLIDAGPGLKIIDINDAYARATFTAREAIVGKPLFEIFPDNPAIDTADGVSNVYNSLRAVVETGEPHALAVQRYDMRNTEGVFVERYWQSINTPVRDAGGKLICLLHNVEDVTAEVLAN | failed |
| MERIVMPANYVHTRTTPFWTKETAPASIWRRHLDAGTRQGVYPRLCVMQGTIRYYGYADETSPEPVETLTIEAGQFGVFPPEKWHRIEALSDDTLFNVDFYVDPKILIEGLEHHHHHH | failed |
| MIRIKTPSEIEKMKKAGKAVAVALREVRKVIVPGKTAWDVETLVLEIFKKLRVKPAFKGYGGYKYATCVSVNEEVVHGLPLKEKVFKEGDIVSVDVGAVYQGLYGDAAVTYIVGETDERGKELVRVTREVLEKAIKMIKPGIRLGDVSHCIQETVESVGFNVIRDYVGHGVGRELHEDPQIPNYGTPGTGVVLRKGMTLAIEPMVSEGDWRVVVKEDGWTAVTVDGSRCAHFEHTILITENGAEILTKEG | not failed |
| MATEPPKIVWNEGKRRFETEDHEAFIEYKMRNNGKVMDLVHTYVPSFKRGLGLASHLCVAAFEHASSHSISIIPSCSYVSDTFLPRNPSWKPLIHSEVFKSSI | not failed |
| MRKLLLGLSALTLATASAAAAQDPGPAAPVQYEVAFPNATHREARITATFRKVPKGALQLRMSRSSPGRYAIHEFAKNVYQVTAVDGAGKPLKVDRAEPYGWSVSGHDGTVKVTYTLYADRGDGTYSQIDTTHAHLNMPATFLWAVGYHDKPIRVRFERADPSWKIATQLPPVAGQPDSFWAPNLQYFMDSPTELSAMTVREWKVTDKGRDYTFRLALHHTGTEADADTFAEKLKAIVPEHIKVFGELPKFDYGEYTFIADYMPQITGDGMEHRNSTFISQPRSLFRGNFSQLGTASHELFHAWNVERIRPAELEPFDFTKANPTPSLWLAEGFTQYYGPLLIRRAGQSSMDEFLTGLSGTLNGVVNGPGRLYGSPQEMSLRAPFVDAAAALDPVNPNIFTSYYPYGAVIGLALDLQLRGRDKPLSLDDFMKQMWRAHGVTEKPYTPADVRAALAKTTGDQAFADAFFKASIEGSALPDFAPLLERAGLKLRQKAPKKAWLGAARVKVSGTELLLDAPPVPNSPLYGAGVEVGDRIISIGRFVFANESDWTDALDRLKPGEAMTVQFIQRGQVREAPMTIAADPTLEVVRFEKVDLKPTEAQLAFRTAWLGAEAEAAK | failed |
| MNLPHLMSLASHLASHGFFCLRFTCKGLNIVHRIKAYKSVLNYLKTSGEYKLAGVFLGGRSMGSRAAASVMCHIEPDDGDDFVRGLICISYPLHHPKQQHKLRDEDLFRLKEPVLFVSGSADEMCEKNLLEKVAQKMQAPHKIHWIEKANHSMAVKGRSTNDVFKEINTQILFWIQEITEMDKKCH | failed |
| VGFAPELYCGLENCYDVLEVNREEFDKQKLAKAYRALARKHHPDRVKNKEEKLLAEERFRVIATAYETLKDDEAKTNYDYYLDHPDQRFYNYYQYYRLRAAPKVDL | not failed |
| VFHRFNEPGSRSGYSLYVPEYYDPDREWPLVMALHGGSGHGRLFLWSWLRDARARGAIVVAPTATGRTWALMGEDVDSPNLARILDEVRGHWRIDPSRLLLTGLSDGGTFCYVSGLTSDSPFTHLAPIAASFHPLLAGAADSARLRGLPIQIVHGRHDWMFPVEVARQAHEALVSAGADVSYREIADLSHSYPREANVALLDWL | failed |
| MAEKQYDFTHVPKRQGNSIKWGVLKEKELPMWIAEMDFKIAPEIMASMEEKLKVAAFGYESVPAEYYKAVADWEEIEHRARPKEDWCVFASGVVPAISAMVRQFTSPGDQILVQEPVYNMFYSVIEGNGRRVISSDLIYENSKYSVNWADLEEKLATPSVRMMVFCNPHNPIGYAWSEEEVKRIAELCAKHQVLLISDEIHGDLVLTDEDITPAFTVDWDAKNWVVSLISPSKTFNLAALHAACAIIPNPDLRARAEESFFLAGIGEPNLLAIPAAIAAYEEGHDWLRELKQVLRDNFAYAREFLAKEVPEVKVLDSNASYLAWVDISALGMNAEDFCKYLREKTGLIISAGNGYRGNGHEFVRINLACPKELVIDGMQRLKQGVLNLNN | not failed |
| MSTVAFHTLGCKVNHYETEAIWQLFKQGGYERTEYEKKADVYVINTCTVTNTGDKKSRQVIRRAVRQNPDAVICVTGCYAQTSPAEIMAIPGVDIVVGTQDREKMLGYIEEFRKERQPINAVRNIMKTRVYEELDVPYFTDRTRASLKIQEGCNNFCTFCIIPWARGLMRSRDGKEVIKQAQQLVDAGYKEIVLTGIHTGGYGEDIKDYNLAGLLRDMEAEVGGLKRLRISSIEASQISDEVIEVLDKSEVVVRHLHIPLQSGSNTVLKRMRRKYTMEFFQERLDRLKEALPGLAITSDVIVGFPGETEEEFMETYNFIKENRFSELHVFPYSKRTGTPAARMEDQVPEDVKNDRVHRLIELSNQLAKEYASQFEGEVLEIIPEEQFKEGDREGLYVGYTDNYLKIVFEGSEELIGKLVKVKITKAGYPYNEAQFVRVLEDDVKKESASALEHHHHHH | failed |
| MSTKELLFSFHGRIDRKTYWIWNVIYYISIIGFGAGISKLFPAFSYLLLPIFLLVLLIPDLAITTKRWHDRDKSIYWLGLNIPLVIGRIATPMTSPMAQEPSTPQLFIASISLICGLWILIECGFLKGTSGPNKYGPEPQ | not failed |
| MTATASTVLPARALLLDMDGTLVNSDAAVDRVWRRWADRHGLDGDEVMKVVHGRQGYASMALLLPDRPMEHNHADNARMLAEETADTEGVVAIPGAAEFLASLRGLPHALVTSADVALSTARMAAAGLAQPDVRVTAESVGASKPDPEGFLKGAAELGIAPADCVVFEDSGAGIAAGRAAGMRVVGVGPRAGFHGPDVVVEDLTRVRVEADADGGLRLHIG | failed |
| MGPRRLLLVAACFSLCGPLLSARTRARRPESKATNATLDPRSFLLRNPNDKYEPFWEDEEKNESGLTEYRLVSINKSSPLQKQLPAFISEDASGYLTSSWLTLFVPSVYTGVFVVSLPLNIMAIVVFILKMKVKKPAVVYMLHLATADVLFVSVLPFKISYYFSGSDWQFGSELCRFVTAAFYCNMYASILLMTVISIDRFLAVVYPMQSLSWRTLGRASFTCLAIWALAIAGVVPLLLKEQTIQVPGLNITTCHDVLNETLLEGYYAYYFSAFSAVFFFVPLIISTVCYVSIIRCLSSSAVANRSKKSRALFLSAAVFCIFIICFGPTNVLLIAHYSFLSHTSTTEAAYFAYLLCVCVSSISCCIDPLIYYYASSECQRYVYSILCCKESSDPSSYNSSGQLMASKMDTCSSNLNNSIYKKLLT | failed |
| MPWQQQPIRYSADLEKPSPREQADIEKIMAKLLKNNERAYDKYKHGLRDAHAKSHAILRGELIVNEGLPPELAQGLFAEPRTYPVIARLSSTSGVRRSDKTRGVRGLGLKVLGVQGEKILPDDSSTNQDFVMVTHEDFLFADAHAYAGLGMITASLLARLSDQALWLGSGLLDLVSKAGIKLPDNLMVFVAPNRPILGLEFFSSAPFRHGDHVAKYRFAPASENVKALSGQLLPRNPAPEQHRDMIAEFFADQTAEFDFSAQLCTDPVAMPIEDAGKNWDKSISPYVSVAKIVFGPQNPYSALRRAYGDDVLAFNSWRGLAEHRPLGSINRLKKTVYESSADYRHRVNRIDRHEPLEHHHHHH | failed |
| LGIAINEMIRMLRAARDEDDRRNWLKDGYGQVSAALTGDLTTEQLADAAIGLIGRYLDAGRGVFYLYRDAEQRLDLIGSYMYTERNNLGASFALGEGAVGQVARERKPIILEVSGDDAAPIVTGTMLALPRYTYTYPLLHEKELVGVIELSSFDHFDERKLEFLANVGGMLASFL | failed |
| MFLEIAKVYLQGLGLASITVILVGIIWVFWRAKKNIDKTARERQSVLYDVLLIALMTAPILAFAFVAIILMIKA | failed |
| MDWKVFLLRVAVALVLGALIGAERQLRQRLTGLRTNALVSTGACLFVLMTQGVPGLAGDASRIAAYVVSGIGFLGGGVIMRDGLNVRGLNTAATLWCTAAIGVLCSMGLLLEATLGSLVVLCANILLRDIAQRLNRQDVLPASEAEQRYEVQIVCRAEDEIQVRSLMLHSLGSSDLRLQSLHSEDLDNPAKLEVRAELLGTPEAPAQLERLVSRVSLEKGVSSVRWQVFELAAD | failed |
| MEIFEDVVRCGGFRAAALGRGVSSSAISQSISVLEEALGIRLLNRTTRSVAPTEAGEQLLERLRPALYEIRTAVDDLNQLRERPSGTVRINAPGPAADHVLCPLTFEFMKIYPDVNVEIVSDAAIIDIVEQGFDAGVRFGNQLAQDMIAMPLGPALRYAIVASPDYLRKRGRPHSPRDLLQHDCIRRRFPGGTMVTWKFARDGDEVEITPKGRLTLSSAHQELQAALAGSGIAHLFEDYVRDDVEQGRLVELLCDWKQKLPSWYLYYPSRRHTSAAMRAFLEYIRNQRQHPDRR | failed |
| MNAIILAAGFGSRLMPLTKDQPKCMVEYKNKKIIDYEIEALKSAGINEIAVVGGYLNDVLKNYLNKYDIEHFFINSKYDKTNMVHTFFCAKDFMLKCIEEKQDLIISYADIVYFQDCVQKLINAKEELAIVVDKSWCKLWSKRFANPLEDAETLKMTNGYIIELGKKANAYDEIEAQYIGLFKFSYQFLSEVIAFYEMLDRDILYDNKNFENMYMTSFLQALIEKYNNAKAVEIDGNWCEIDFMSDLEVQIEKLEHHHHHH | failed |
| MTVNVYDLANELERGIRALPEYQALVQAKAKIDEDEEAKKLWTEFTEFQMKIQGLIQTGQAPTPEVQTEMQSFNQKIEANPLLKEYATAQQALGVYVNDIERIIFSPLQDIAK | not failed |
